The text below walks through data of US20220411504A1 (Janssen / Centocor, published 2022).

The target of test [1] is T1, HLA-G on cells (K562-HLA-G and HLA-G expressing tumor cells) (human). Nature of the test: cell-based or functional assay.
Test [2] deals with T2, Human CD3 epsilon (CD3ε) of the T cell receptor complex on cells (human, UniProt P07766 23-207).
T2 construct: On Jurkat cells and primary human (pan) T cells; also called T-cell surface glycoprotein CD3 epsilon chain; T3E
Kind of test: T cell binding (method not described).

The target in test [3] is T1, HLA-G on cells (K562-HLA-G and HLA-G …). Kind of test: K562-HLA-G cell binding (method not described).
Test [4] concerns the target T3, DLL3 on tumor cells (SHP-77, HCC1833, G361) (human, UniProt Q9NYJ7 27-618).
T3 sequence: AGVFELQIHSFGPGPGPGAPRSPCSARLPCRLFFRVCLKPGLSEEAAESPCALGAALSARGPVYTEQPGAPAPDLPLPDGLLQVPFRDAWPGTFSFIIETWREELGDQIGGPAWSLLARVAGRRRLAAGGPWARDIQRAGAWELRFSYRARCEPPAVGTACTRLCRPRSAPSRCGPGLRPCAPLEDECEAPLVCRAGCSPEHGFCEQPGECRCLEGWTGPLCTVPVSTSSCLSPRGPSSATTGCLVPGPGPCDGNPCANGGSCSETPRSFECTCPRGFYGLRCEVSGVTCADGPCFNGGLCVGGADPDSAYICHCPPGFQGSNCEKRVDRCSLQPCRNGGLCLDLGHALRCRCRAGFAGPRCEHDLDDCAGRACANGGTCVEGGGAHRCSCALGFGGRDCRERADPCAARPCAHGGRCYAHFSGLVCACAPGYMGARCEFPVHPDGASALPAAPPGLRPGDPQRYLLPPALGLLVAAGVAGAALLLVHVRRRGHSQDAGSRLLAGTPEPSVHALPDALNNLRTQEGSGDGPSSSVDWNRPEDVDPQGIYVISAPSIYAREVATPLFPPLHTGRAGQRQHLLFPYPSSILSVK
Nature of the test: cell-based or functional assay.

The target of test [5] is T2, Human CD3 epsilon (CD3ε) of the T cell …. Nature of the test: flow cytometry on human pan T cells. (In flow cytometry, cells or beads pass a laser one at a time.)
The target in test [6] is T4, recombinant human DLL3 (human, UniProt Q9NYJ7 27-492).
T4 construct: also called DLL3 antigen; Delta-like protein 3
T4 sequence: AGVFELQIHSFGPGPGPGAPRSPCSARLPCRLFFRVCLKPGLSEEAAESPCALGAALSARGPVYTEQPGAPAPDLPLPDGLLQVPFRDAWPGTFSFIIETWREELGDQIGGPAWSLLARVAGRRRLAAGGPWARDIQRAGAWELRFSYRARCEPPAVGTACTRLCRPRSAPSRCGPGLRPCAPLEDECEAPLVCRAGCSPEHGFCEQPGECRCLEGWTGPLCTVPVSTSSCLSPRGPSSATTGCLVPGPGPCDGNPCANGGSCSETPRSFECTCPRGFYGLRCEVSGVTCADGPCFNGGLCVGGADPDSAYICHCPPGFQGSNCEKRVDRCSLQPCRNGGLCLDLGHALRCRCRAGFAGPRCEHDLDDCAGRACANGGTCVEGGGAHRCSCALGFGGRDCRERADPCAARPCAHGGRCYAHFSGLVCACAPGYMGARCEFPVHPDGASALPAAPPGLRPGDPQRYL
Nature of the test: SPR (Biacore T200), antibody captured by goat anti-Fc, DLL3 titrated. On the technique in general: Surface plasmon resonance follows binding to a sensor surface in real time, without labels.

In test [7] the target is T4, recombinant human DLL3. The test is described as above. The source holds these as a separate data set.
The target in test [8] is T5, human Kallikrein-2 6-His protein (soluble hK2) (human, UniProt P20151 18-261, limits assumed).
T5 construct: The assays say only 'soluble hK2' or 'human KLK2 antigen'; also called KLK2; kallikrein related peptidase 2
T5 sequence (P20151 other isoform, or with tags, fused parts or gaps limits assumed): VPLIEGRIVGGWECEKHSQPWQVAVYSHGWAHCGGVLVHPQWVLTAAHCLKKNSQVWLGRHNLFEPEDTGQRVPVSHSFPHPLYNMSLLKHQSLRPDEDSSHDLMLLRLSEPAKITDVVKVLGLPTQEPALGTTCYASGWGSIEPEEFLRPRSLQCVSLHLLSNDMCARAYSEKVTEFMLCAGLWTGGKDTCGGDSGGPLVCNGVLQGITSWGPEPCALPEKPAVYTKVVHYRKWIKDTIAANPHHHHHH
Nature of the test: SPR, bispecific captured by anti-Fc, soluble hK2 injected.

Read-outs that look alike come from different tables or passages of the source.

T2 sequence (P07766 23-207 limits assumed, one chain of several): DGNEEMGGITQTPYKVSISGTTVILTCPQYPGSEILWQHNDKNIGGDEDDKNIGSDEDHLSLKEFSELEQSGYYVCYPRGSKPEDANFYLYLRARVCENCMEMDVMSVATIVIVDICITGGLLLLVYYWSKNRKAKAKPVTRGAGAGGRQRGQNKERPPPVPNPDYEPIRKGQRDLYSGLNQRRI

B1: HC3B125 (bispecific antibody, human IgG1, lambda, L234A L235A)
heavy: QVQLQQSGPRLVRPSQTLSLTCAISGDSVFNNNAAWSWIRQSPSRGLEWLGRTYYRSKWLYDYAVSVKSRITVNPDTSRNQFTLQLNSVTPEDTALYYCARGYSSSFDYWGQGTLVTVSSASTKGPSVFPLAPSSKSTSGGTAALGCLVKDYFPEPVTVSWNSGALTSGVHTFPAVLQSSGLYSLSSVVTVPSSSLGTQTYICNVNHKPSNTKVDKKVEPKSCDKTHTCPPCPAPEAAGGPSVFLFPPKPKDTLMISRTPEVTCVVVSVSHEDPEVKFNWYVDGVEVHNAKTKPREEQYNSTYRVVSVLTVLHQDWLNGKEYKCKVSNKALPAPIEKTISKAKGQPREPQVYVYPPSREEMTKNQVSLTCLVKGFYPSDIAVEWESNGQPENNYKTTPPVLDSDGSFALVSKLTVDKSRWQQGNVFSCSVMHEALHNHYTQKSLSLSPG
light: QSALTQPASVSGSPGQSITISCTGTSSNIGTYKFVSWYQQHPDKAPKVLLYEVSKRPSGVSSRFSGSKSGNTASLTISGLQAEDQADYHCVSYAGSGTLLFGGGTKLTVLGQPKAAPSVTLFPPSSEELQANKATLVCLISDFYPGAVTVAWKADSSPVKAGVETTTPSKQSNNKYAASSYLSLTPEQWKSHRSYSCQVTHEGSTVEKTVAPTECS
scFv: DIVMTQSPDSLAVSLGERATINCKSSQSVLHSSNNKNYLTWFQQKPGQPPKLLIYWASTRESGVPDRFSGSGSGTDFTLTISSLQAEDVAVYYCHQYYSTPPTFGQGTKVEIKGGSEGKSSGSGSESKSTGGSQVQLQQSGPGLVKPSQTLSLTCAISGDSVSSNSAAWNWIRQSPSRGLEWLGRTYYRSKWYNDYAVSVKSRITINPDTSKNQISLQLNSVTPEDTAVYYCAGDRRYGIVGLPFAYWGQGTLVTVSSEPKSSDKTHTCPPCPAPEAAGGPSVFLFPPKPKDTLMISRTPEVTCVVVSVSHEDPEVKFNWYVDGVEVHNAKTKPREEQYNSTYRVVSVLTVLHQDWLNGKEYKCKVSNKALPAPIEKTISKAKGQPREPQVYVLPPSREEMTKNQVSLLCLVKGFYPSDIAVEWESNGQPENNYLTWPPVLDSDGSFFLYSKLTVDKSRWQQGNVFSCSVMHEALHNHYTQKSLSLSPG
notes: No codon for C-terminal K447; also called CD3B376-Fab-Fc x MHGB732-LH-scFv-Fc; HCB125
By EC50 is commonly meant the concentration giving half of the maximal effect. High values mean a less potent agent, low ones a more potent agent. On to B1, for which, in test [1], the “Cytotoxicity, EC50 (T cell-mediated, NCI-H2009-b2m target cells, 72 hr)” value is 0.0565 nM. Further, the EC50 in test [2] was found to be 60 nM; in test [3], 12 nM.

B2: DL3B585 (bispecific antibody, human IgG1, lambda, L234A L235A)
scFv: DIQMTQSPSSLSASVGDRVTITCRASQGISNYLAWFQQKPGKAPKSLIYAASSLQSGVPSKFSGSGSGTDFTLTISSLQPEDFATYYCQQYNSYPYTFAQGTKLEIKGGSEGKSSGSGSESKSTGGSQVQLVQSGAEVKKPGASVKVSCKASGNTFTNYYIHWVRQAPGQGLEWMGIINPSGGSTSYAQKLQGRMTMTRDTSTSTVYMELSSLRSEDTAVYFCARQGPFIGDAFDIWGQGTMVTVSSEPKSSDKTHTCPPCPAPEAAGGPSVFLFPPKPKDTLMISRTPEVTCVVVSVSHEDPEVKFNWYVDGVEVHNAKTKPREEQYNSTYRVVSVLTVLHQDWLNGKEYKCKVSNKALPAPIEKTISKAKGQPREPQVYVLPPSREEMTKNQVSLLCLVKGFYPSDIAVEWESNGQPENNYLTWPPVLDSDGSFFLYSKLTVDKSRWQQGNVFSCSVMHEALHNHYTQKSLSLS
heavy: B1 heavy
light: B1 light
notes: also called CD3B376-Fab; DL3B279-LH-scFv
By Kd is commonly meant the concentration at which binding is half-saturated. For the molecule B2, in test [4], the “Cytotoxicity, % lysis of SHP-77 cells (whole PBMCs, 1:1 ET, 30 nM)” value came to 58.1%. Also, the binding result in test [5] is on record as “binds”. Moreover, the Kd with recombinant human DLL3 [6] and with recombinant human DLL3 [7] was 0.024 nM each time.

B3: HC3B258 (bispecific antibody, human IgG1, lambda, L234A L235A)
heavy: B1 heavy
light: B1 light
scFv: B1 scFv
notes: Differs from HC3B125 only by a codon for the C-terminal lysine K447, which is processed; also called CD3B376-Fab-Fc x MHGB732-LH-scFv-Fc (with K447 codon)
As for B3, the EC50 is 60 nM in test [2] and 11 nM in test [3].

B4: D3C3B80 (bispecific antibody, human IgG1, lambda, L234A L235A)
scFv: DIQMTQSPSSLSASVGDRVTITCRASQGISNYLAWFQQKPGKAPKSLIYAASSLQSGVPSKFSGSGSGTDFTLTISSLQPEDFATYYCQQYNSYPYTFGQGTKLEIKGGSEGKSSGSGSESKSTGGSQVQLVQSGAEVKKPGASVKVSCKASGQTFTNYYIHWVRQAPGQGLEWMGIINPSGGSTSYAQKLQGRMTMTRDTSTSTVYMELSSLRSEDTAVYFCARQGPFIGDAFDIWGQGTTVTVSSEPKSSDKTHTCPPCPAPEAAGGPSVFLFPPKPKDTLMISRTPEVTCVVVSVSHEDPEVKFNWYVDGVEVHNAKTKPREEQYNSTYRVVSVLTVLHQDWLNGKEYKCKVSNKALPAPIEKTISKAKGQPREPQVYVLPPSREEMTKNQVSLLCLVKGFYPSDIAVEWESNGQPENNYLTWPPVLDSDGSFFLYSKLTVDKSRWQQGNVFSCSVMHEALHNHYTQKSLSLSPGK
heavy: QVQLQQSGPRLVRPSQTLSLTCAISGDSVFNNNAAWSWIRQSPSRGLEWLGRTYYRSKWLYDYAVSVKSRITVNPDTSRNQFTLQLNSVTPEDTALYYCARGYSSSFDYWGQGTLVTVSSASTKGPSVFPLAPSSKSTSGGTAALGCLVKDYFPEPVTVSWNSGALTSGVHTFPAVLQSSGLYSLSSVVTVPSSSLGTQTYICNVNHKPSNTKVDKKVEPKSCDKTHTCPPCPAPEAAGGPSVFLFPPKPKDTLMISRTPEVTCVVVSVSHEDPEVKFNWYVDGVEVHNAKTKPREEQYNSTYRVVSVLTVLHQDWLNGKEYKCKVSNKALPAPIEKTISKAKGQPREPQVYVYPPSREEMTKNQVSLTCLVKGFYPSDIAVEWESNGQPENNYKTTPPVLDSDGSFALVSKLTVDKSRWQQGNVFSCSVMHEALHNHYTQKSLSLSPGK
light: B1 light
notes: also called C3C3B80
Take B4: in test [5], the binding result is given as “binds”. Further, in the test with recombinant human DLL3 [7], the equilibrium dissociation constant (Kd) turned out to be 0.033 nM.

B5: KL2B242 Fab (arm of a hK2/CD3 bispecific, Table 40) (bispecific antibody)
chain 1: QVQLQESGPGLVKPSETLSLTCTVSGGSISSYYWSWLRQPAGSGLEWIGRLYVSGFTNYNPSLKSRVTLSLDPSRNQLSLKLSSVTAADTAVYYCAGDSGNYWGWFDPWGQGTLVTVSSASTKGPSVFPLAPSSKSTSGGTAALGCLVKDYFPEPVTVSWNSGALTSGVHTFPAVLQSSGLYSLSSVVTVPSSSLGTQTYICNVNHKPSNTKVDKKVEPKSCDKTHTCPPCPAPEAAGGPSVFLFPPKPKDTLMISRTPEVTCVVVSVSHEDPEVKFNWYVDGVEVHNAKTKPREEQYNSTYRVVSVLTVLHQDWLNGKEYKCKVSNKALPAPIEKTISKAKGQPREPQVYVLPPSREEMTKNQVSLLCLVKGFYPSDIAVEWESNGQPENNYLTWPPVLDSDGSFFLYSKLTVDKSRWQQGNVFSCSVMHEALHNHYTQKSLSLSPG
chain 2: SYELTQPPSVSVSPGETASITCSGDQLGENYASWYQQKPGQSPVLVIYQDSKRPSGIPERFSGSNSGNTATLTISGTQALDEADYYCQAWDNSIVVFGGGTKLTVLGQPKAAPSVTLFPPSSEELQANKATLVCLISDFYPGAVTVAWKADSSPVKAGVETTTPSKQSNNKYAASSYLSLTPEQWKSHRSYSCQVTHEGSTVEKTVAPTECS
chain 3: DIQMTQSPSSLSASVGDRVTITCRARQSIGTAIHWYQQKPGKAPKLLIKYASESISGVPSRFSGSGSGTDFTLTISSLQPEDFATYYCQQSGSWPYTFGQGTKLEIKGGSEGKSSGSGSESKSTGGSEVQLVESGGGLVKPGGSLRLSCAASGFTFSRYNMNWVRQAPGKGLEWVSSISTSSNYIYYADSVKGRFTFSRDNAKNSLDLQMSGLRAEDTAIYYCTRGWGPFDYWGQGTLVTVSSEPKSSDKTHTCPPCPAPEAAGGPSVFLFPPKPKDTLMISRTPEVTCVVVSVSHEDPEVKFNWYVDGVEVHNAKTKPREEQYNSTYRVVSVLTVLHQDWLNGKEYKCKVSNKALPAPIEKTISKAKGQPREPQVYVYPPSREEMTKNQVSLTCLVKGFYPSDIAVEWESNGQPENNYKTTPPVLDSDGSFALVSKLTVDKSRWQQGNVFSCSVMHEALHNHYTQKSLSLSPG
B5: binding in test [8] was characterised by a dissociation constant (Kd) of 0.14 nM.
